Earlier results on one substance are cited in article PMC2957019 (Journal of labelled compounds & radiopharmaceuticals, 2009).

Where no end group is shown, it is not given here.

For this data set the following is noted: incubation in serum.

With “^125I-FROP-1: 12-amino acid synthetic peptide radiolabeled with iodine (EDYELMDLLAYL), selected by phage display for targeting thyroid carcinoma cells (also: 125I radiolabel)”, the “time to degradation in serum” value was at most 30 min.
